pIC50, pKd: −log10 of the molar value.
How the values were obtained:
[1] = molecular target: HLA-A*24:02; test: IEDB peptide-MHC binding, purified MHC/competitive/fluorescence; ≥ and ≤ were set here for values at or beyond the usual limits of such assays
[2] = molecular target: HLA-A*02:01; test: as above
[3] = molecular target: HLA-B*08:01; test: as above
[4] = molecular target: HLA-B*07:02; test: as above
[5] = molecular target: HLA-B*51:01; test: IEDB peptide-MHC binding, purified MHC/competitive/fluorescence; filed as Kd, often an IC50 or EC50 that approximates it; ≥ and ≤ were set here for values at or beyond the usual limits of such assays; conditions: source organism: Bacillus anthracis str. A2012
[6] = molecular target: HLA-B*07:02; test: as above
[7] = molecular target: HLA-B*35:01; test: as above; conditions: source organism: Bacillus anthracis str. A2012
[8] = molecular target: HLA-A*02:12; test: as above; conditions: source organism: Francisella tularensis subsp. holarctica OSU18
[9] = molecular target: HLA-A*02:01; test: as above
[10] = molecular target: HLA-B*53:01; test: IEDB peptide-MHC binding, purified MHC/competitive/radioactivity; filed as Kd, often an IC50 or EC50 that approximates it; ≥ and ≤ were set here for values at or beyond the usual limits of such assays
[11] = molecular target: HLA-B*57:01; test: as above
[12] = molecular target: HLA-B*58:01; test: as above
[13] = molecular target: HLA-A*02:19; test: IEDB peptide-MHC binding, purified MHC/competitive/fluorescence; filed as Kd, often an IC50 or EC50 that approximates it; ≥ and ≤ were set here for values at or beyond the usual limits of such assays
[14] = molecular target: HLA-A*69:01; test: as above; conditions: source organism: Human immunodeficiency virus 1
[15] = molecular target: HLA-A*29:02; test: IEDB peptide-MHC binding, purified MHC/direct/fluorescence; filed as Kd, often an IC50 or EC50 that approximates it; ≥ and ≤ were set here for values at or beyond the usual limits of such assays; conditions: source organism: Escherichia coli O157:H7
[16] = molecular target: HLA-A*03:01; test: as above
[17] = molecular target: HLA-B*44:02; test: as above; conditions: source organism: Escherichia coli O157:H7
[18] = molecular target: HLA-B*57:01; test: as above
[19] = molecular target: HLA-B*18:01; test: as above; conditions: source organism: Escherichia coli O157:H7
[20] = molecular target: HLA-A*01:01; test: as above
[21] = molecular target: HLA-B*48:01; test: as above; conditions: source organism: Escherichia coli O157:H7
[22] = molecular target: HLA-B*58:01; test: as above
[23] = molecular target: HLA-A*11:01; test: as above; conditions: source organism: Escherichia coli O157:H7
[24] = molecular target: HLA-B*40:01; test: as above; conditions: source organism: Escherichia coli O157:H7
[25] = molecular target: HLA-B*27:05; test: as above
[26] = molecular target: HLA-B*46:01; test: as above; conditions: source organism: Escherichia coli O157:H7
[27] = molecular target: HLA-A*69:01; test: as above; conditions: source organism: Escherichia coli O157:H7
[28] = molecular target: HLA-A*24:02; test: IEDB peptide-MHC binding, purified MHC/competitive/radioactivity; filed as Kd, often an IC50 or EC50 that approximates it; ≥ and ≤ were set here for values at or beyond the usual limits of such assays; conditions: source organism: Dengue virus 2 Jamaica/1409/1983
[29] = molecular target: HLA-B*35:01; test: as above
[30] = molecular target: HLA-A*29:02; test: IEDB peptide-MHC binding, purified MHC/competitive/fluorescence; filed as Kd, often an IC50 or EC50 that approximates it; ≥ and ≤ were set here for values at or beyond the usual limits of such assays
[31] = molecular target: HLA-B*40:01; test: as above
[32] = molecular target: HLA-B*15:01; test: as above
[33] = molecular target: HLA-B*15:01; test: IEDB peptide-MHC binding, purified MHC/competitive/fluorescence; ≥ and ≤ were set here for values at or beyond the usual limits of such assays; conditions: source organism: Zaire ebolavirus
[34] = molecular target: HLA-A*68:02; test: IEDB peptide-MHC binding, purified MHC/direct/fluorescence; filed as Kd, often an IC50 or EC50 that approximates it; ≥ and ≤ were set here for values at or beyond the usual limits of such assays; conditions: source organism: Escherichia coli O157:H7
[35] = molecular target: HLA-A*02:01; test: as above
[36] = molecular target: HLA-A*31:01; test: as above; conditions: source organism: Escherichia coli O157:H7
[37] = molecular target: HLA-B*07:02; test: as above
[38] = molecular target: HLA-B*15:17; test: as above
[39] = molecular target: HLA-B*15:17; test: IEDB peptide-MHC binding, purified MHC/competitive/fluorescence; filed as Kd, often an IC50 or EC50 that approximates it; ≥ and ≤ were set here for values at or beyond the usual limits of such assays; conditions: source organism: Human immunodeficiency virus 1
[40] = molecular target: HLA-A*02:03; test: as above; conditions: source organism: Human immunodeficiency virus 1
[41] = molecular target: HLA-B*15:01; test: IEDB peptide-MHC binding, purified MHC/direct/fluorescence; filed as Kd, often an IC50 or EC50 that approximates it; ≥ and ≤ were set here for values at or beyond the usual limits of such assays; conditions: source organism: Bacillus anthracis
[42] = molecular target: HLA-A*32:01; test: IEDB peptide-MHC binding, purified MHC/competitive/radioactivity; filed as Kd, often an IC50 or EC50 that approximates it; ≥ and ≤ were set here for values at or beyond the usual limits of such assays; conditions: source organism: Dengue virus 3 Martinique/1243/1999
[43] = source organism: Vaccinia virus WR
[44] = source organism: Bacillus anthracis str. A2012
[45] = source organism: Dengue virus 3 Martinique/1243/1999
[46] = source organism: Human immunodeficiency virus 1
[47] = source organism: Escherichia coli O157:H7
[48] = source organism: Dengue virus 2 Jamaica/1409/1983
[49] = source organism: Dengue virus 1 Brazil/97-11/1997
[50] = source organism: Zaire ebolavirus
[51] = source organism: Yersinia pestis CO92
[52] = source organism: Entamoeba histolytica HM-1:IMSS
[53] = source organism: Bacillus anthracis
[54] = source organism: Dengue virus 4 Philippines/H241/1956
[55] = source organism: Escherichia coli O157:H7 str. EDL933
[56] = source organism: Sudan ebolavirus

Sequence LPWTKISET has a pIC50 [1, 43] of 4.18, a pIC50 [2, 43] of no more than 3.39 and a pIC50 [3, 43] of no more than 4.06. The pIC50 [4, 43] was no more than 4.09.

In the case of MPLKKQILF, the pKd [5] was 6.89, the pKd [6, 44] was 6.55 and the pKd [7] was no less than 10.00.

SVYSWAIML gave a pKd [8] of 5.64 and a pKd ([9]; source organism: Francisella tularensis subsp. holarctica OSU18) of 7.76.

Work on AAVEDEDFW yielded a pKd [10, 45] of 6.48, a pKd [11, 45] of 5.95 and a pKd [12, 45] of 6.95.

For LTFGWCFKL, the pKd [9, 46] was 6.82, the pKd [13, 46] was 6.12 and the pKd [14] was 7.33.

Work on MLKLRQARL yielded a pKd [15] of no more than 4.70, a pKd [16, 47] of no more than 4.70 and a pKd [17] of no more than 4.70. For the same sequence, the pKd [18, 47] was no more than 4.70, the pKd [19] was no more than 4.70 and the pKd [20, 47] was no more than 4.70. It also gave a pKd [21] of no more than 4.70, a pKd [22, 47] of no more than 4.70 and a pKd [23] of no more than 4.70. The pKd [24] was no more than 4.70, the pKd [25, 47] was no more than 4.70 and the pKd [26] was no more than 4.70. For the same sequence, the pKd [27] was no more than 4.70.

With IAASIILEF the pKd [10, 48] was 7.58, the pKd [28] was 6.32 and the pKd [12, 48] was 8.15. It also gave a pKd [29, 48] of 7.66.

In the case of MSSEGAWKQI, the pKd [11, 49] was 6.64 and the pKd [12, 49] was 6.10.

With TVEGIGHHY the pKd ([30]; source organism: Shigella sonnei Ss046) was 7.44.

YRHILRSQG showed a pIC50 [3, 50] of no more than 3.77.

GELIFSHNL showed a pKd [31, 51] of 8.15 and a pKd [32, 51] of 5.50.

Work on LWNPYEWYQ yielded a pKd [30, 44] of 6.28.

In the case of MNHKNKFMA, the pIC50 [2, 50] was no more than 3.85 and the pIC50 [3, 50] was 4.70.

SLFLPKLVV gave a pIC50 [1, 50] of 4.34, a pIC50 [2, 50] of 6.70 and a pIC50 [3, 50] of no more than 3.53.

In the case of FEVKKRDGV, the pIC50 [3, 50] was no more than 3.80.

Work on YETLVGLAI yielded a pKd ([31]; source organism: Salmonella enterica subsp. enterica serovar Typhi) of 8.40.

KTSIGLICVI gave a pKd [11, 45] of 6.67.

With SVGHMMVIF the pIC50 [1, 50] was 5.62, the pIC50 [2, 50] was 4.73 and the pIC50 [4, 50] was no more than 3.56. It also gave a pIC50 [33] of 4.98.

Work on HEVHAVWPG yielded a pKd [34] of no more than 4.70, a pKd [35, 47] of no more than 4.70 and a pKd [18, 47] of no more than 4.70. For the same sequence, the pKd [19] was 6.71, the pKd [36] was no more than 4.70 and the pKd [37, 47] was no more than 4.70. The pKd [20, 47] was no more than 4.70, the pKd [21] was no more than 4.70 and the pKd [22, 47] was no more than 4.70. It also gave a pKd [23] of no more than 4.70, a pKd [38, 47] of no more than 4.70 and a pKd [24] of no more than 4.70. The pKd [25, 47] was no more than 4.70 and the pKd [27] was no more than 4.70.

With LYNTVATLY the pKd [9, 46] was 5.94, the pKd [39] was no more than 4.70 and the pKd [40] was 6.24.

Sequence WMSSEGAWKQ has a pKd [12, 49] of 5.11.

In the case of ASSGMLWMAE, the pKd [11, 45] was no more than 4.53 and the pKd [12, 45] was 5.64.

Work on VPKLLLWFN yielded a pIC50 ([1]; source organism: Variola virus) of 5.01 and a pIC50 ([4]; source organism: Variola virus) of no more than 3.09.

Work on KTRTNDWDF yielded a pKd ([11]; source organism: Dengue virus 2 Peru/IQT2913/1996) of 8.18.

SMFYGIFPS was tested, and the pKd [9, 52] was 9.70 and the pKd [13, 52] was 6.55.

With LPFERATV the pKd ([6]; source organism: Influenza A virus (A/swine/Italy/2/1979(H1N1))) was 7.98.

Work on RTIQGQRFW yielded a pKd [16, 53] of no more than 4.70, a pKd [35, 53] of no more than 4.70 and a pKd [18, 53] of no more than 4.70. For the same sequence, the pKd [37, 53] was no more than 4.70, the pKd [20, 53] was no more than 4.70 and the pKd [22, 53] was no more than 4.70. It also gave a pKd [38, 53] of no more than 4.70, a pKd [25, 53] of no more than 4.70 and a pKd [41] of no more than 4.70.

Sequence IAVSTANIF has a pKd [11, 54] of 6.39 and a pKd [29, 54] of 6.82.

RVWIEDNPW was tested, and the pKd [42] was 7.14, the pKd [11, 45] was 7.30 and the pKd [12, 45] was 8.68.

In the case of FERGVINVF, the pKd [31, 55] was 5.49 and the pKd [32, 55] was 6.58.

RLDRPHTPQ showed a pIC50 [2, 56] of no more than 4.05 and a pIC50 [4, 56] of 4.54.

Reference: the Immune Epitope Database (IEDB)
